± gives the standard error. For some assays here: Variants at the floor of the assay were thinned out.
B1: glmS ribozyme (parent)
chain: AUAAAAGCGCCAGAACUACAGAAAUGUAGUUGACGAGGAGGAGGUUUAUCGAAUUUUCGGCGGAUGCCUCCAAA

What was measured:
Conditions in all cases: with glucosamine-6-phosphate
[1] = variants of: B1; experiment: kcat; higher = faster cleavage; RNA array
Procedure, shortened: (§1)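 Tracking of barcoded ribozyme variants used a hybridised Cy3 probe at 37 °C, after in situ transcription by E. coli RNA polymerase on sequenced MiSeq chips. The flowed solution held 40 μM to 10 mM glucosamine-6-phosphate in HEPES/KCl/Mg(OAc)2 buffer, and imaging ran over ~14 h. kobs was taken from exponential decay fits of normalised per-tile medians, and kcat and KM from weighted Michaelis–Menten fits.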

[2] = variants of: B1; experiment: self-cleavage kobs at 40 uM GlcN6P; higher = faster cleavage; RNA array
Procedure, shortened: as §1

[3] = variants of: B1; experiment: self-cleavage kobs at 10000 uM GlcN6P; higher = faster cleavage; RNA array
Procedure, shortened: as §1

[4] = variants of: B1; experiment: KM; higher = weaker cofactor use; RNA array
Procedure, shortened: as §1

[5] = variants of: B1; experiment: self-cleavage kobs at 2500 uM GlcN6P; higher = faster cleavage; RNA array
Procedure, shortened: as §1

[6] = variants of: B1; experiment: self-cleavage kobs at 160 uM GlcN6P; higher = faster cleavage; RNA array
Procedure, shortened: as §1

[7] = variants of: B1; experiment: self-cleavage kobs at 640 uM GlcN6P; higher = faster cleavage; RNA array
Procedure, shortened: as §1

Variant: G59C C67A
- kcat [1]: < 1e-05 s⁻¹
- self-cleavage kobs at 40 uM GlcN6P [2]: < 1e-05 s⁻¹
- self-cleavage kobs at 10000 uM GlcN6P [3]: < 1e-05 s⁻¹

Variant: A15U G38A C67A C68U
- kcat [1]: 2.38e-05 ± 7.1e-06 s⁻¹

Variant: C10A G51U G63C
- kcat [1]: 1.02e-05 ± 4.6e-07 s⁻¹
- KM [4]: 731 ± 360 µM
- self-cleavage kobs at 2500 uM GlcN6P [5]: < 1e-05 s⁻¹

Variant: G9U C11A
- kcat [1]: < 1e-05 s⁻¹
- KM [4]: 159 ± 62 µM
- self-cleavage kobs at 40 uM GlcN6P [2]: < 1e-05 s⁻¹
- self-cleavage kobs at 160 uM GlcN6P [6]: < 1e-05 s⁻¹
- self-cleavage kobs at 640 uM GlcN6P [7]: < 1e-05 s⁻¹

Variant: C67G C70A
- kcat [1]: < 1e-05 s⁻¹
- self-cleavage kobs at 40 uM GlcN6P [2]: < 1e-05 s⁻¹
- self-cleavage kobs at 640 uM GlcN6P [7]: < 1e-05 s⁻¹
- self-cleavage kobs at 10000 uM GlcN6P [3]: < 1e-05 s⁻¹

Variant: A52U U54C
- kcat [1]: 0.000603 ± 4.5e-05 s⁻¹
- KM [4]: 2570 ± 310 µM
- self-cleavage kobs at 160 uM GlcN6P [6]: 3.57e-05 ± 9.5e-06 s⁻¹
- self-cleavage kobs at 640 uM GlcN6P [7]: 0.000115 ± 1.9e-05 s⁻¹
- self-cleavage kobs at 2500 uM GlcN6P [5]: 0.000318 ± 5e-05 s⁻¹
- self-cleavage kobs at 10000 uM GlcN6P [3]: 0.000462 ± 8.6e-05 s⁻¹

Variant: C10G G59U
- kcat [1]: 3.49e-05 ± 2.3e-06 s⁻¹
- KM [4]: 1050 ± 290 µM
- self-cleavage kobs at 40 uM GlcN6P [2]: < 1e-05 s⁻¹
- self-cleavage kobs at 2500 uM GlcN6P [5]: 2.34e-05 ± 6.6e-06 s⁻¹
- self-cleavage kobs at 10000 uM GlcN6P [3]: 3.25e-05 ± 8.1e-06 s⁻¹

Variant: C58A C68A
- kcat [1]: 3.68e-05 ± 1.1e-05 s⁻¹
- self-cleavage kobs at 160 uM GlcN6P [6]: 4.01e-05 ± 1.7e-05 s⁻¹
- self-cleavage kobs at 640 uM GlcN6P [7]: 5.26e-05 ± 1.6e-05 s⁻¹
- self-cleavage kobs at 2500 uM GlcN6P [5]: 3.75e-05 ± 1.7e-05 s⁻¹

Variant: A48U A52G
- kcat [1]: 1.32e-05 ± 2.9e-06 s⁻¹

Variant: G38C C68A
- kcat [1]: 1.39e-05 ± 4.4e-06 s⁻¹
- self-cleavage kobs at 40 uM GlcN6P [2]: < 1e-05 s⁻¹

Variant: C16A G51A
- kcat [1]: < 1e-05 s⁻¹
- KM [4]: 632 ± 220 µM
- self-cleavage kobs at 10000 uM GlcN6P [3]: < 1e-05 s⁻¹

Variant: U47A C67U
- kcat [1]: 0.00772 ± 0.0031 s⁻¹
- self-cleavage kobs at 40 uM GlcN6P [2]: 0.00025 ± 3.1e-05 s⁻¹
- self-cleavage kobs at 160 uM GlcN6P [6]: 0.000428 ± 7.1e-05 s⁻¹
- self-cleavage kobs at 640 uM GlcN6P [7]: 0.003 ± 0.00062 s⁻¹
- self-cleavage kobs at 2500 uM GlcN6P [5]: 0.00497 ± 0.0016 s⁻¹
- self-cleavage kobs at 10000 uM GlcN6P [3]: 0.00638 ± 0.00092 s⁻¹

Variant: U56C
- kcat [1]: 0.00571 ± 0.00066 s⁻¹
- KM [4]: 3050 ± 430 µM
- self-cleavage kobs at 40 uM GlcN6P [2]: 7.94e-05 ± 1.5e-06 s⁻¹
- self-cleavage kobs at 160 uM GlcN6P [6]: 0.000244 ± 8.9e-06 s⁻¹
- self-cleavage kobs at 640 uM GlcN6P [7]: 0.000963 ± 2.5e-05 s⁻¹
- self-cleavage kobs at 2500 uM GlcN6P [5]: 0.00743 ± 0.0032 s⁻¹
- self-cleavage kobs at 10000 uM GlcN6P [3]: 0.00442 ± 0.00011 s⁻¹

Variant: U56A
- kcat [1]: 0.0171 ± 0.0053 s⁻¹
- KM [4]: 1750 ± 650 µM
- self-cleavage kobs at 40 uM GlcN6P [2]: 0.000397 ± 7.8e-06 s⁻¹
- self-cleavage kobs at 160 uM GlcN6P [6]: 0.00127 ± 7.4e-05 s⁻¹
- self-cleavage kobs at 640 uM GlcN6P [7]: 0.00479 ± 0.00018 s⁻¹
- self-cleavage kobs at 2500 uM GlcN6P [5]: 0.00725 ± 0.00034 s⁻¹
- self-cleavage kobs at 10000 uM GlcN6P [3]: 0.0213 ± 0.00079 s⁻¹

Variant: G59A C68G
- kcat [1]: 1.72e-05 ± 2.3e-06 s⁻¹

Variant: A14C U47G
- kcat [1]: 0.00101 ± 0.00014 s⁻¹
- KM [4]: 2500 ± 550 µM
- self-cleavage kobs at 40 uM GlcN6P [2]: 2.31e-05 ± 1.1e-05 s⁻¹
- self-cleavage kobs at 160 uM GlcN6P [6]: 6.35e-05 ± 1.2e-05 s⁻¹
- self-cleavage kobs at 640 uM GlcN6P [7]: 0.000208 ± 3e-05 s⁻¹
- self-cleavage kobs at 2500 uM GlcN6P [5]: 0.000422 ± 8.2e-05 s⁻¹
- self-cleavage kobs at 10000 uM GlcN6P [3]: 0.000874 ± 0.00012 s⁻¹

Variant: G38U G40A
- kcat [1]: < 1e-05 s⁻¹

Variant: U30A G60A
- kcat [1]: < 1e-05 s⁻¹
- self-cleavage kobs at 40 uM GlcN6P [2]: < 1e-05 s⁻¹
- self-cleavage kobs at 640 uM GlcN6P [7]: < 1e-05 s⁻¹

Variant: G38A G62U
- kcat [1]: < 1e-05 s⁻¹
- self-cleavage kobs at 640 uM GlcN6P [7]: < 1e-05 s⁻¹
